Source: patent publication US10472401B2, “Peptides and combination of peptides for use in immunotherapy against ovarian cancer and other cancers” (immatics biotechnologies GmbH, priority 2015, dated 2019)

These substances were tested against HLA-A*02:01 (Homo sapiens, UniProt P04439, D140Y/D185E/D98H/E176V/E277Q/G131W/G231S/I119V/I121R/I166T/I218V/L300P/L318F/N151K/N90K/P208A/P217A/Q86G/Q94H/R138H/R169H/T345S) (assay: MHC binding assay (UV-ligand exchange, ELISA of stabilized MHC complexes)). Conditions: MHC class I binding score; binding to HLA-A*02:01 ranged by peptide exchange yield (UV-ligand exchange, ELISA).
How it was run: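 Binding scored as exchange yield, detected via β2m of stabilized complexes in an HRP/TMB ELISA read at 450 nm after streptavidin capture of 100-fold diluted monomers for 1 h at 37 °C. Complexes came from UV irradiation cleaving a photolabile peptide, exchanged for the candidate.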
“558 (GLLENIPRV; listed as Homo sapiens) [compound 558]” was tested, and the Peptide exchange was “″+++″ (≥50% = +++)”. With “321 (GLFEDVTQPGILL; listed as Homo sapiens) [compound 321]” the Peptide exchange was “″++++″ (≥75% = ++++)”. “288 (NLINEINGV; listed as Homo sapiens) [compound 288]” was tested, and the Peptide exchange was “″+++″ (≥50% = +++)”. With “444 (GLLRDEALAEV; listed as Homo sapiens) [compound 444]” the Peptide exchange was “″+++″ (≥50% = +++)”. With “448 (NLLETKLQL; listed as Homo sapiens) [compound 448]” the Peptide exchange was “″+++″ (≥50% = +++)”. In the case of “607 (RLYSGISGLEL; listed as Homo sapiens) [compound 607]”, the Peptide exchange is reported as “″+++″ (≥50% = +++)”. In the case of “380 (TLIEDEIATI; listed as Homo sapiens) [compound 380]”, the Peptide exchange is reported as “″++″ (≥20% = ++)”. In the case of “261 (YVLEFLEEI; listed as Homo sapiens) [compound 261]”, the Peptide exchange is reported as “″++″ (≥20% = ++)”. In the case of “208 (KISPVTFSV; listed as Homo sapiens) [compound 208]”, the Peptide exchange is reported as “″+++″ (≥50% = +++)”. For “386 (ILFRYPLTI; listed as Homo sapiens) [compound 386]”, the Peptide exchange was “″+++″ (≥50% = +++)”. “361 (ALYELEGTTV; listed as Homo sapiens) [compound 361]” was tested, and the Peptide exchange was “″+++″ (≥50% = +++)”. With “67 (TLLAEALVTV; listed as Homo sapiens) [compound 67]” the Peptide exchange was “″+++″ (≥50% = +++)”. For “349 (SLTEYLQNV; listed as Homo sapiens) [compound 349]”, the Peptide exchange was “″++++″ (≥75% = ++++)”. “88 (FLLVGDLMAV; listed as Homo sapiens) [compound 88]” was tested, and the Peptide exchange was “″+++″ (≥50% = +++)”. “449 (KLAEGLDIQL; listed as Homo sapiens) [compound 449]” was tested, and the Peptide exchange was “″+++″ (≥50% = +++)”. With “524 (ALIENLTHQI; listed as Homo sapiens) [compound 524]” the Peptide exchange was “″++″ (≥20% = ++)”. “516 (AVGPASILKEV; listed as Homo sapiens) [compound 516]” was tested, and the Peptide exchange was “″++″ (≥20% = ++)”. With “594 (IMLKGDNITL; listed as Homo sapiens) [compound 594]” the Peptide exchange was “″+++″ (≥50% = +++)”. “574 (YLLQEPPRTV; listed as Homo sapiens) [compound 574]” was tested, and the Peptide exchange was “″++″ (≥20% = ++)”. For “57 (TLAELQPPVQL; listed as Homo sapiens) [compound 57]”, the Peptide exchange was “″+++″ (≥50% = +++)”. With “356 (KLLGKLPEL; listed as Homo sapiens) [compound 356]” the Peptide exchange was “″+++″ (≥50% = +++)”. With “116 (YHIDEEVGF; listed as Homo sapiens) [compound 116]” the Peptide exchange was “″+″ (≥10% = +)”. With “467 (FLAKDFNFL; listed as Homo sapiens) [compound 467]” the Peptide exchange was “″+++″ (≥50% = +++)”. With “392 (ALLHPQGFEV; listed as Homo sapiens) [compound 392]” the Peptide exchange was “″++″ (≥20% = ++)”. With “100 (YLLSTNAQL; listed as Homo sapiens) [compound 100]” the Peptide exchange was “″++++″ (≥75% = ++++)”. With “402 (VLFSGALLGL; listed as Homo sapiens) [compound 402]” the Peptide exchange was “″++″ (≥20% = ++)”. “91 (IMQDFPAEIFL; listed as Homo sapiens) [compound 91]” was tested, and the Peptide exchange was “″++++″ (≥75% = ++++)”. With “188 (GLFPVTPEAV; listed as Homo sapiens) [compound 188]” the Peptide exchange was “″+++″ (≥50% = +++)”. With “537 (TLAPGEVLRSV; listed as Homo sapiens) [compound 537]” the Peptide exchange was “″+++″ (≥50% = +++)”. “385 (SLLEQGLVEA; listed as Homo sapiens) [compound 385]” was tested, and the Peptide exchange was “″++″ (≥20% = ++)”. In the case of “16 (VLFQGQASL; listed as Homo sapiens) [compound 16]”, the Peptide exchange is reported as “″+++″ (≥50% = +++)”. With “433 (AMLNEPWAV; listed as Homo sapiens) [compound 433]” the Peptide exchange was “″+++″ (≥50% = +++)”. With “14 (AAYGGLNEKSFV; listed as Homo sapiens) [compound 14]” the Peptide exchange was “″+++″ (≥50% = +++)”. With “565 (ALQETPTSV; listed as Homo sapiens) [compound 565]” the Peptide exchange was “″++″ (≥20% = ++)”. In the case of “440 (ALADGVTMQV; listed as Homo sapiens) [compound 440]”, the Peptide exchange is reported as “″++″ (≥20% = ++)”. “459 (ALITEVVRL; listed as Homo sapiens) [compound 459]” was tested, and the Peptide exchange was “″++″ (≥20% = ++)”. For “576 (ILLNNSGQIKL; listed as Homo sapiens) [compound 576]”, the Peptide exchange was “″++++″ (≥75% = ++++)”. With “151 (KILQQLVTL; listed as Homo sapiens) [compound 151]” the Peptide exchange was “″+++″ (≥50% = +++)”. “580 (LLMENAERV; listed as Homo sapiens) [compound 580]” was tested, and the Peptide exchange was “″++″ (≥20% = ++)”. For “517 (LLMPIPEGLTL; listed as Homo sapiens) [compound 517]”, the Peptide exchange was “″+++″ (≥50% = +++)”. For “318 (GLINTGVLSV; listed as Homo sapiens) [compound 318]”, the Peptide exchange was “″++″ (≥20% = ++)”. In the case of “458 (SLIDKLYNI; listed as Homo sapiens) [compound 458]”, the Peptide exchange is reported as “″++″ (≥20% = ++)”. For “354 (LILEGVDTV; listed as Homo sapiens) [compound 354]”, the Peptide exchange was “″++″ (≥20% = ++)”. In the case of “412 (YLDDLNEGVYI; listed as Homo sapiens) [compound 412]”, the Peptide exchange is reported as “″++″ (≥20% = ++)”. “462 (KLAKQPETV; listed as Homo sapiens) [compound 462]” was tested, and the Peptide exchange was “″+++″ (≥50% = +++)”. “610 (LLAPTPYIIGV; listed as Homo sapiens) [compound 610]” was tested, and the Peptide exchange was “″+++″ (≥50% = +++)”. With “408 (VLDDSIYLV; listed as Homo sapiens) [compound 408]” the Peptide exchange was “″++″ (≥20% = ++)”. With “211 (LLWPGAALL; listed as Homo sapiens) [compound 211]” the Peptide exchange was “″++″ (≥20% = ++)”. For “394 (LLAVIGGLVYL; listed as Homo sapiens) [compound 394]”, the Peptide exchange was “″+++″ (≥50% = +++)”. “370 (SLLQDLVSV; listed as Homo sapiens) [compound 370]” was tested, and the Peptide exchange was “″+++″ (≥50% = +++)”. For “307 (ALPVSLPQI; listed as Homo sapiens) [compound 307]”, the Peptide exchange was “″+++″ (≥50% = +++)”. In the case of “297 (VLADIELAQA; listed as Homo sapiens) [compound 297]”, the Peptide exchange is reported as “″+++″ (≥50% = +++)”. For “363 (KVLDVSDLESV; listed as Homo sapiens) [compound 363]”, the Peptide exchange was “″++″ (≥20% = ++)”. In the case of “47 (ILLSVPLLVV; listed as Homo sapiens) [compound 47]”, the Peptide exchange is reported as “″++″ (≥20% = ++)”. With “228 (AMQEYIAVV; listed as Homo sapiens) [compound 228]” the Peptide exchange was “″++″ (≥20% = ++)”. For “619 (ALQDRVPLA; listed as Homo sapiens) [compound 619]”, the Peptide exchange was “″+++″ (≥50% = +++)”. For “473 (AMATESILHFA; listed as Homo sapiens) [compound 473]”, the Peptide exchange was “″+++″ (≥50% = +++)”. With “87 (ALPEAPAPLLPHIT; listed as Homo sapiens) [compound 87]” the Peptide exchange was “″++″ (≥20% = ++)”.
